B1: SF3B2 (protein, UniProt Q13435 1-895, looked up)
Splicing factor 3B subunit 2: MATEHPEPPKAELQLPPPPPPGHYGAWAAQELQAKLAEIGAPIQGNREELVERLQSYTRQTGIVLNRPVLRGEDGDKAAPPPMSAQLPGIPMPPPPLGLPPLQPPPPPPPPPPGLGLGFPMAHPPNLGPPPPLRVGEPVALSEEERLKLAQQQAALLMQQEERAKQQGDHSLKEHELLEQQKRAAVLLEQERQQEIAKMGTPVPRPPQDMGQIGVRTPLGPRVAAPVGPVGPTPTVLPMGAPVPRPRGPPPPPGDENREMDDPSVGPKIPQALEKILQLKESRQEEMNSQQEEEEMETDARSSLGQSASETEEDTVSVSKKEKNRKRRNRKKKKKPQRVRGVSSESSGDREKDSTRSRGSDSPAADVEIEYVTEEPEIYEPNFIFFKRIFEAFKLTDDVKKEKEKEPEKLDKLENSAAPKKKGFEEEHKDSDDDSSDDEQEKKPEAPKLSKKKLRRMNRFTVAELKQLVARPDVVEMHDVTAQDPKLLVHLKATRNSVPVPRHWCFKRKYLQGKRGIEKPPFELPDFIKRTGIQEMREALQEKEEQKTMKSKMREKVRPKMGKIDIDYQKLHDAFFKWQTKPKLTIHGDLYYEGKEFETRLKEKKPGDLSDELRISLGMPVGPNAHKVPPPWLIAMQRYGPPPSYPNLKIPGLNSPIPESCSFGYHAGGWGKPPVDETGKPLYGDVFGTNAAEFQTKTEEEEIDRTPWGELEPSDEESSEEEEEEESDEDKPDETGFITPADSGLITPGGFSSVPAGMETPELIELRKKKIEEAMDGSETPQLFTVLPEKRTATVGGAMMGSTHIYDMSTVMSRKGPAPELQGVEVALAPEELELDPMAMTQKYEEHVREQQAQVEKEDFSDMVAEHAAKQKQKKRKAQPQDSRGGSKKYKEFKF
B2: RBM17 (protein, UniProt Q96I25 2-401, looked up)
Splicing factor 45: SLYDDLGVETSDSKTEGWSKNFKLLQSQLQVKKAALTQAKSQRTKQSTVLAPVIDLKRGGSSDDRQIVDTPPHVAAGLKDPVPSGFSAGEVLIPLADEYDPMFPNDYEKVVKRQREERQRQRELERQKEIEEREKRRKDRHEASGFARRPDPDSDEDEDYERERRKRSMGGAAIAPPTSLVEKDKELPRDFPYEEDSRPRSQSSKAAIPPPVYEEQDRPRSPTGPSNSFLANMGGTVAHKIMQKYGFREGQGLGKHEQGLSTALSVEKTSKRGGKIIVGDATEKDASKKSDSNPLTEILKCPTKVVLLRNMVGAGEVDEDLEVETKEECEKYGKVGKCVIFEIPGAPDDEAVRIFLEFERVESAIKAVVDLNGRYFGGRVVKACFYNLDKFRVLDLAEQV
B3: ATAD3A (protein, UniProt Q9NVI7 2-586, looked up)
ATPase family AAA …: SWLFGINKGPKGEGAGPPPPLPPAQPGAEGGGDRGLGDRPAPKDKWSNFDPTGLERAAKAARELEHSRYAKDALNLAQMQEQTLQLEQQSKLKEYEAAVEQLKSEQIRAQAEERRKTLSEETRQHQARAQYQDKLARQRYEDQLKQQQLLNEENLRKQEESVQKQEAMRRATVEREMELRHKNEMLRVEAEARARAKAERENADIIREQIRLKAAEHRQTVLESIRTAGTLFGEGFRAFVTDWDKVTATVAGLTLLAVGVYSAKNATLVAGRFIEARLGKPSLVRETSRITVLEALRHPIQVSRRLLSRPQDALEGVVLSPSLEARVRDIAIATRNTKKNRSLYRNILMYGPPGTGKTLFAKKLALHSGMDYAIMTGGDVAPMGREGVTAMHKLFDWANTSRRGLLLFVDEADAFLRKRATEKISEDLRATLNAFLYRTGQHSNKFMLVLASNQPEQFDWAINDRINEMVHFDLPGQEERERLVRMYFDKYVLKPATEGKQRLKLAQFDYGRKCSEVARLTEGMSGREIAQLAVSWQATAYASEDGVLTEAMMDTRVQDAVQQHQQKMCWLKAEGPGRGDEPSPS
B4: SF1 (protein, UniProt Q15637 2-639, looked up)
Splicing factor 1: ATGANATPLDFPSKKRKRSRWNQDTMEQKTVIPGMPTVIPPGLTREQERAYIVQLQIEDLTRKLRTGDLGIPPNPEDRSPSPEPIYNSEGKRLNTREFRTRKKLEEERHNLITEMVALNPDFKPPADYKPPATRVSDKVMIPQDEYPEINFVGLLIGPRGNTLKNIEKECNAKIMIRGKGSVKEGKVGRKDGQMLPGEDEPLHALVTANTMENVKKAVEQIRNILKQGIETPEDQNDLRKMQLRELARLNGTLREDDNRILRPWQSSETRSITNTTVCTKCGGAGHIASDCKFQRPGDPQSAQDKARMDKEYLSLMAELGEAPVPASVGSTSGPATTPLASAPRPAAPANNPPPPSLMSTTQSRPPWMNSGPSESRPYHGMHGGGPGGPGGGPHSFPHPLPSLTGGHGGHPMQHNPNGPPPPWMQPPPPPMNQGPHPPGHHGPPPMDQYLGSTPVGSGVYRLHQGKGMMPPPPMGMMPPPPPPPSGQPPPPPSGPLPPWQQQQQQPPPPPPPSSSMASSTPLPWQQNTTTTTTSAGTGSIPPWQQQQAAAAASPGAPQMQGNPTMVPLPPGVQPPLPPGAPPPPPPPPPGSAGMMYAPPPPPPPPMDPSNFVTMMGMGVAGMPPFGMPPAPPPPPPQN
B5: SF3B3 (protein, UniProt Q15393 1-1217, looked up)
Splicing factor 3B subunit 3: MFLYNLTLQRATGISFAIHGNFSGTKQQEIVVSRGKILELLRPDPNTGKVHTLLTVEVFGVIRSLMAFRLTGGTKDYIVVGSDSGRIVILEYQPSKNMFEKIHQETFGKSGCRRIVPGQFLAVDPKGRAVMISAIEKQKLVYILNRDAAARLTISSPLEAHKANTLVYHVVGVDVGFENPMFACLEMDYEEADNDPTGEAAANTQQTLTFYELDLGLNHVVRKYSEPLEEHGNFLITVPGGSDGPSGVLICSENYITYKNFGDQPDIRCPIPRRRNDLDDPERGMIFVCSATHKTKSMFFFLAQTEQGDIFKITLETDEDMVTEIRLKYFDTVPVAAAMCVLKTGFLFVASEFGNHYLYQIAHLGDDDEEPEFSSAMPLEEGDTFFFQPRPLKNLVLVDELDSLSPILFCQIADLANEDTPQLYVACGRGPRSSLRVLRHGLEVSEMAVSELPGNPNAVWTVRRHIEDEFDAYIIVSFVNATLVLSIGETVEEVTDSGFLGTTPTLSCSLLGDDALVQVYPDGIRHIRADKRVNEWKTPGKKTIVKCAVNQRQVVIALTGGELVYFEMDPSGQLNEYTERKEMSADVVCMSLANVPPGEQRSRFLAVGLVDNTVRIISLDPSDCLQPLSMQALPAQPESLCIVEMGGTEKQDELGERGSIGFLYLNIGLQNGVLLRTVLDPVTGDLSDTRTRYLGSRPVKLFRVRMQGQEAVLAMSSRSWLSYSYQSRFHLTPLSYETLEFASGFASEQCPEGIVAISTNTLRILALEKLGAVFNQVAFPLQYTPRKFVIHPESNNLIIIETDHNAYTEATKAQRKQQMAEEMVEAAGEDERELAAEMAAAFLNENLPESIFGAPKAGNGQWASVIRVMNPIQGNTLDLVQLEQNEAAFSVAVCRFSNTGEDWYVLVGVAKDLILNPRSVAGGFVYTYKLVNNGEKLEFLHKTPVEEVPAAIAPFQGRVLIGVGKLLRVYDLGKKKLLRKCENKHIANYISGIQTIGHRVIVSDVQESFIWVRYKRNENQLIIFADDTYPRWVTTASLLDYDTVAGADKFGNICVVRLPPNTNDEVDEDPTGNKALWDRGLLNGASQKAEVIMNYHVGETVLSLQKTTLIPGGSESLVYTTLSGGIGILVPFTSHEDHDFFQHVEMHLRSEHPPLCGRDHLSFRSYYFPVKNVIDGDLCEQFNSMEPNKQKNVSEELDRTPPEVSKKLEDIRTRYAF

System: GFP-tagged PRPF40A-Nter-MUT
Assay: SILAC GFP-immunoprecipitation with quantitative mass spectrometry, mutant construct
Assay type: binding, human (Hela cells)
Details: quantitative MS, Hela cells, protein by gene name
Description: The PRPF40A N-terminal region (isoform 2, residues 1-221) was PCR-amplified from RPE1 cDNA (ATCC, Cat# CRL-4000) cDNA. The sequence was amplified in two fragments and both fragments were combined by overhang. All PCRs were carried out using Q5 Polymerase (NEB) according to manufacturer’s protocol. The resulting PRPF40A N-terminal region was cloned into a GFP-expressing pcDNA5 vector (see pcDNA5 GFP vector in ref. [28]) using Q5 Site-Directed Mutagenesis Kit (NEB). Nter-MUT, containing the PPVP/PALPP motifs changed to AAAA/AAAAA, was obtained by mutating the N-ter-WW12-containing plasmid with Q5 site-directed mutagenesis. Plasmids were transformed into DH5alpha chemically competent cells. After culturing, DNA isolation was performed with either ZymoPURE Plasmid Miniprep Kit (Zymo Research) or QIAGEN Plasmid Plus Midi Kit (Qiagen). The sequence was confirmed by Sanger Sequencing (GATC Eurofins). All used oligonucleotides are shown in Supplementary Table 6.
Hela cells (ATCC, Cat# CCL-2, RRID:CVCL_0030) were cultured in DMEM SILAC medium (Thermo Fisher) supplemented with 10% filtered FBS (Sigma-Aldrich) and 1% penicillin-streptomycin (Thermo-Fisher). The SILAC medium contains either light (Arg0, Lys0), medium (Arg6, Lys4) or heavy (Arg10, Lys8) isotopes (Cambridge Isotopes Laboratories). Hela cells were cultivated for 14 days in SILAC medium to assure sufficient isotope incorporation. For transfection, 7 × 10^6 Hela cells were seeded in a 15 cm culture dish in 20 ml of respective SILAC medium and grown for 24 h. The cells were then transfected with 20 µg of plasmids expressing either GFP (Control), GFP-tagged N-ext-WW12 or GFP-tagged-N-ext-WW12-MUT utilizing 64 µl FuGENE (Promega) (ratio 1:3.2), according to manufacturer’s protocol.
24 h post-transfection, cells were washed twice in ice-cold PBS and harvested in 1 ml mRIPA buffer (50 mM Tris, 150 mM NaCl, 1 mM EDTA, 1% NP-40, 0.1% Na-deoxycholate), supplemented with 2 µl Turbo-DNase (Thermo Fisher) and 3 µl protease-inhibitor cocktail cOmplete (Sigma-Aldrich). Cell lysates were cleared by centrifugation at 16,000 × g, 4 °C, 15 min and concentration was measured using Pierce BCA Protein Assay kit (Thermo Scientific). The expressed constructs were pulled down by incubating 2.5 mg of lysate with 20 μl GFP-nanobody agarose beads (ChromoTek, GTA-20) for 1 h at 4 °C under constant agitation. Subsequently, beads were washed three times with mRIPA buffer without supplements, then eluted in 1X NuPAGE LDS sample buffer (Thermo Scientific). To detach the proteins from the beads, the eluate was heated to 70 °C for 10 min To evaluate the success of the immunoprecipitation, input (1%) and IP samples were analyzed on a NuPAGE 4–12% Bis-Tris-Acrylamide gel (Thermo Fisher) using NuPAGE MOPS SDS running buffer (Thermo Fisher). Proteins were stained using Sypro Ruby protein gel stain (Thermo Fisher) according to manufacturer’s protocol.
The eluted proteins of three SILAC states (light, medium, heavy) were combined. The proteins were then reduced in DTT, alkylated in iodoacetamide, and purified using the SP3 paramagnetic bead approach. This was followed by overnight enzymatic digestion using trypsin (1 µg per sample) in 50 mM ammonium bicarbonate at 37 °C. The peptide solution was then purified by solid phase extraction in C18 StageTips[99].
Peptides were separated by online reverse phase liquid chromatography using the EASY-nLC 1000 system (Thermo Scientific) in a 30-cm analytical column (inner diameter: 75 μm; heated at 50 °C) packed in-house with ReproSil-Pur 120 C18-AQ 1.9-μm beads (Dr. Maisch GmbH). The gradient separation was performed through a 105-min non-linear gradient of 1.6–32% acetonitrile with 0.1% formic acid at a nanoflow rate of 225 nl/min. The eluted peptides were sprayed directly by electrospray ionization into a Q Exactive Plus Orbitrap mass spectrometer (Thermo Scientific). […]

Row | Molecule | Immunoprecipitation enrichment MUT vs WT, log2 FC
1 | B1 | 0.8966
2 | B2 | 1.293
3 | B3 | 1.016
4 | B4 | 0.9625
5 | B5 | 0.8966

Source: paper PMC11079029, “Intramolecular autoinhibition regulates the selectivity of PRPF40A tandem WW domains for proline-rich motifs” (Nature Communications, 2024)
